Molecular target: the molecule itself
Assay: native MS

B1: outer membrane porin F (OmpF) (natural protein)
chain: AEIYNKDGNKVDLYGKAVGLHYFSKGNGENSYGGNGDMTYARLGFKGETQINSDLTGYGQWEYNFQGNNSEGADAQTGNKTRLAFAGLKYADVGSFDYGRNYGVVYDALGYTDMLPEFGGDTAYSDDFFVGRVGGVATYRNSNFFGLVDGLNFAVQYLGKNERDTARRSNGDGVGGSISYEYEGFGIVGAYGAADRTNLQEAQPLGNGKKAEQWATGLKYDANNIYLAANYGETRNATPITNKFTNTSGFANKTQDVLLVAQYQFDFGLRPSIAYTKSKAKDVEGIGDVDLVNYFEVGATYYFNKNMSTYVDYIINQIDSDNKLGVGSDDTVAVGIVYQF
stoichiometry N: 3
